Experimental data as given in patent US20210155676A1 (Gilead, published 2021).

What was measured:
human FcγRIIIA [1] = molecular target: T1, human FcγRIIIA (human, UniProt P08637 17-254); test: cell-based or functional assay
gp140 BaL = molecular target: T2, gp140 BaL (HIV-1 strain BaL); test: ELISA, gp140 coated
T2 construct: domain: gp140
Procedure: (§1) The in vitro binding characteristics of antibodies for both the antigen (HIV gp120) and Fc binding receptors (FcγRs, FcRn) were determined using an Enzyme-Linked Immunosorbant Assay (ELISA).

gp140 SHIV SF162P3 = molecular target: T3, gp140 SHIV SF162P3 (SHIV SF162P3); test: ELISA, gp140 coated
T3 construct: domain: gp140; also called SHIV gp140
Procedure: as §1

[2] = molecular target: HIV-1 92US727 Env (on virus) (HIV-1 isolate 92US727); test: cell-based or functional assay
HIV-1 BaL Env (on virus) = HIV-1 BaL Env (on virus) (HIV-1 strain BaL); test: cell-based or functional assay
[3] = molecular target: HIV-1 93HT593 Env (on virus) (HIV-1 isolate 93HT593); test: cell-based or functional assay
[4] = molecular target: HIV-1 92US657 Env (on virus) (HIV-1 isolate 92US657); test: cell-based or functional assay
[5] = molecular target: HIV-1 92US712 Env (on virus) (HIV-1 isolate 92US712); test: cell-based or functional assay
human FcγRIIIA [6] = molecular target: T1, human FcγRIIIA; test: cell-based or functional assay; remark: listed apart in the source
human FcγRIIIA [7] = molecular target: T1, human FcγRIIIA; test: cell-based or functional assay; remark: listed apart in the source

T1 sequence (P08637 17-254): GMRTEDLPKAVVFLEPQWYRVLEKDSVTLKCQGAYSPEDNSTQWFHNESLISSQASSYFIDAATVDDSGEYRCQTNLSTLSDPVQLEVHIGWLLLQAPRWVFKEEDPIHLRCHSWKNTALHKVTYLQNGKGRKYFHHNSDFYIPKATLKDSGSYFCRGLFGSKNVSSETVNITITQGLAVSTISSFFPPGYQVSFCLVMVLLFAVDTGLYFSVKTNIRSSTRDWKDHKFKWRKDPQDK

B1: PGT121.42 hIgG1/hLambda (antibody)
heavy: QMQLQESGPGLVKPSETLSLTCSVSGASISDSYWSWIRRSPGKGLEWIGYVHKSGDTNYNPSLKSRVHLSLDTSKNQVSLSLSSVTAADSGKYYCARTLHGRRIYGIVAFNEWFTYFYMDVWGKGTQVTVSSASTKGPSVFPLAPSSKSTSGGTAALGCLVKDYFPEPVTVSWNSGALTSGVHTFPAVLQSSGLYSLSSVVTVPSSSLGTQTYICNVNHKPSNTKVDKKVEPKSCDKTHTCPPCPAPELLAGPDVFLFPPKPKDTLMISRTPEVTCVVVDVSHEDPEVKFNWYVDGVEVHNAKTKPREEQYNSTYRVVSVLTVLHQDWLNGKEYKCKVSNKALPLPEEKTISKAKGQPREPQVYTLPPSREEMTKNQVSLTCLVKGFYPSDIAVEWESNGQPENNYKTTPPVLDSDGSFFLYSKLTVDKSRWQQGNVFSCSVLHEALHSHYTQKSLSLSPGK
light: not shown
notes: also called PTG121.42
NK ADCC EC50, US657-infected CD4+ T cells, donor A4588 (human FcγRIIIA [1]): 4.3 nM
NK ADCC EC50, US657-infected CD4+ T cells, donor A4589 (human FcγRIIIA [1]): 1.5 nM
NK ADCC EC50, US657-infected CD4+ T cells, donor A4595 (human FcγRIIIA [1]): 0.57 nM
NK ADCC EC50, US657-infected CD4+ T cells, donor A4813 (human FcγRIIIA [1]): 1.4 nM
NK ADCC EC50, US657-infected CD4+ T cells, donor A4838 (human FcγRIIIA [1]): 0.94 nM
NK ADCC EC50, US657-infected CD4+ T cells, donor A4839 (human FcγRIIIA [1]): 0.54 nM
NK ADCC EC50, US657-infected CD4+ T cells, geomean of donors (human FcγRIIIA [1]): 1.2 nM
EC50 (gp140 BaL): 0.52 nM
EC50 (gp140 SHIV SF162P3): 0.45 nM
neutralization IC50, HIV-1 US727, CEM.NKr.CCR5.Luc assay [2]: 0.015 µg/mL
neutralization IC50, HIV-1 BaL, CEM.NKr.CCR5.Luc assay (HIV-1 BaL Env (on virus)): 0.015 µg/mL
neutralization IC50, HIV-1 HT593, CEM.NKr.CCR5.Luc assay [3]: 0.155 µg/mL
neutralization IC50, HIV-1 US657, CEM.NKr.CCR5.Luc assay [4]: 0.096 µg/mL
neutralization IC50, HIV-1 US712, CEM.NKr.CCR5.Luc assay [5]: 0.02 µg/mL
NK ADCC EC50, BaL-infected CD4+ T cells, donor A4590 (human FcγRIIIA [6]): 1.2 nM
NK ADCC EC50, BaL-infected CD4+ T cells, donor A4591 (human FcγRIIIA [6]): 0.02 nM
NK ADCC EC50, BaL-infected CD4+ T cells, donor A4813 (human FcγRIIIA [6]): 4.4 nM
NK ADCC EC50, BaL-infected CD4+ T cells, donor A4838 (human FcγRIIIA [6]): 0.5 nM
NK ADCC EC50, BaL-infected CD4+ T cells, donor A4839 (human FcγRIIIA [6]): 3.9 nM
NK ADCC EC50, BaL-infected CD4+ T cells, geomean of donors (human FcγRIIIA [6]): 0.7 nM
NK ADCC EC50, HT593-infected CD4+ T cells, donor 1 (human FcγRIIIA [7]): 0.024 nM
NK ADCC EC50, HT593-infected CD4+ T cells, donor A4588 (human FcγRIIIA [7]): 0.176 nM
NK ADCC EC50, HT593-infected CD4+ T cells, donor A4589 (human FcγRIIIA [7]): 0.18 nM
NK ADCC EC50, HT593-infected CD4+ T cells, donor A4813 (human FcγRIIIA [7]): 4.9 nM
NK ADCC EC50, HT593-infected CD4+ T cells, donor A4838 (human FcγRIIIA [7]): 0.62 nM
NK ADCC EC50, HT593-infected CD4+ T cells, donor A4839 (human FcγRIIIA [7]): 5.2 nM
NK ADCC EC50, HT593-infected CD4+ T cells, donor X (human FcγRIIIA [7]): 0.014 nM
NK ADCC EC50, HT593-infected CD4+ T cells, geomean of donors (human FcγRIIIA [7]): 0.3 nM
